In patent publication US20240316154A1 (Eli Lilly, published 2024):
Read-outs that look alike come from different tables or passages of the source.

Legend:
[1] = biological target: T1, Rabbit serum albumin (rabbit, UniProt P49065 25-608); test: SPR, SA on chip, 25 C
T1 construct: bought; immobilised on a CM5 chip by amine coupling; also called Rabbit SA
Method: (§1) Human SA is obtained from Sigma Aldrich (Cat. No. A8763). […] Mouse SA is obtained from Sigma Aldrich (Cat. No. A3139). Rat SA is obtained from Sigma Aldrich (Cat. No. A4538). Pig SA is obtained from Sigma Aldrich (Cat. No. A4414). […] Cow SA is obtained from Sigma Aldrich (Cat. No. A7030). […] Excess reactive groups on the surfaces (flow cell 1 and 2) are deactivated by injecting 70 μl of 1 M Ethanolamine hydrochloride-NaOH pH 8.5.
(§2) 180 μl of sample are individually injected sequentially across the immobilized SAs on the chip's surface and dissociated for 600 sec at 60 μl/min flow rate at 25° C.

[2] = biological target: T2, Human serum albumin (human, UniProt P02768 25-609); test: SPR, SA on chip, 1:1 fit, 25 C
T2 construct: bought; immobilised on a CM5 chip by amine coupling; also called Human SA
Method: as §1, §2

[3] = biological target: T3, Cynomolgus monkey serum albumin (cynomolgus monkey, UniProt A2V9Z4 25-608); test: SPR, SA on chip, 1:1 fit, 25 C
T3 construct: bought; immobilised on a CM5 chip by amine coupling; also called Cyno SA
Method: as §1, §2

[4] = biological target: T4, Mouse serum albumin (mouse, UniProt P07724 25-608); test: SPR, SA on chip, 1:1 fit, 25 C
T4 construct: bought; immobilised on a CM5 chip by amine coupling; also called Mouse SA
Method: as §1, §2

[5] = biological target: T5, Rat serum albumin (rat, UniProt P02770 25-608); test: SPR, SA on chip, 1:1 fit, 25 C
T5 construct: bought; immobilised on a CM5 chip by amine coupling; also called Rat SA
Method: as §1, §2

[6] = biological target: T6, Pig serum albumin (pig, UniProt P08835 25-607); test: SPR, SA on chip, 1:1 fit, 25 C
T6 construct: bought; immobilised on a CM5 chip by amine coupling; also called Pig SA
Method: as §1, §2

[7] = biological target: T7, Dog serum albumin (dog, UniProt P49822 25-608); test: SPR, SA on chip, 1:1 fit, 25 C
T7 construct: bought; immobilised on a CM5 chip by amine coupling; also called Dog SA
Method: as §1, §2

[8] = biological target: T8, Cow serum albumin (cow, UniProt P02769 25-607); test: SPR, SA on chip, 1:1 fit, 25 C
T8 construct: bought; immobilised on a CM5 chip by amine coupling; also called Cow SA
Method: as §1, §2

[9] = biological target: T1, Rabbit serum albumin; test: SPR, SA on chip, 25 C; remark: listed apart in the source
Method: as §1, §2

[10] = biological target: IL-2 receptor-dimer pair of the PathHunter IL-2 BioAssay cells; test: cell-based or functional assay
[11] = biological target: T2, Human serum albumin; test: SPR, SA on chip, 1:1 fit, 25 C; remark: listed apart in the source
Method: as §1, §2

[12] = biological target: T3, Cynomolgus monkey serum albumin; test: SPR, SA on chip, 1:1 fit, 25 C; remark: listed apart in the source
Method: as §1, §2

[13] = biological target: T4, Mouse serum albumin; test: SPR, SA on chip, 1:1 fit, 25 C; remark: listed apart in the source
Method: as §1, §2

[14] = biological target: T5, Rat serum albumin; test: SPR, SA on chip, 1:1 fit, 25 C; remark: listed apart in the source
Method: as §1, §2

[15] = biological target: T6, Pig serum albumin; test: SPR, SA on chip, 1:1 fit, 25 C; remark: listed apart in the source
Method: as §1, §2

[16] = biological target: T7, Dog serum albumin; test: SPR, SA on chip, 1:1 fit, 25 C; remark: listed apart in the source
Method: as §1, §2

[17] = biological target: T8, Cow serum albumin; test: SPR, SA on chip, 1:1 fit, 25 C; remark: listed apart in the source
Method: as §1, §2

B1: VHH-based fusion of Example 8, VHH fusion 8 (GLP1-(G4Q)5-MC6.1C22.43) (other)
chain: HGEGTFTSDVSSYLEEQAAKEFIAWLVKGGGGGGGQGGGGQGGGGQGGGGQGGGGQEVQLLESGGGLVQPGGSLRLSCAASGRYIDETAVAWFRQAPGKEREFVAGIGGGVDITYYADSVKGRFTISRDNSKNTLYLQMNSLRPEDTAVYYCAARPGRPLITSKVADLYPYWGQGTLVTVSSPP
notes: also called Compound 8; GLP-1-VHH fusion
binding result [1]: no binding (tested: up to 1000 nM) | Kd [2]: 0.15 nM | koff [2]: 0.00011 s⁻¹ | kon [2]: 720000 M⁻¹ s⁻¹ | Kd [3]: 0.96 nM | koff [3]: 0.00087 s⁻¹ | kon [3]: 910000 M⁻¹ s⁻¹ | Kd [4]: 18 nM | koff [4]: 0.01 s⁻¹ | kon [4]: 560000 M⁻¹ s⁻¹ | Kd [5]: 11 nM | koff [5]: 0.0071 s⁻¹ | kon [5]: 660000 M⁻¹ s⁻¹ | Kd [6]: 27 nM | koff [6]: 0.013 s⁻¹ | kon [6]: 490000 M⁻¹ s⁻¹ | Kd [7]: 5.4 nM | koff [7]: 0.0038 s⁻¹ | kon [7]: 710000 M⁻¹ s⁻¹ | Kd [8]: 120 nM | koff [8]: 0.093 s⁻¹ | kon [8]: 800000 M⁻¹ s⁻¹

B2: VHH-based fusion of Example 7, VHH fusion 7 (MC6.1C22-(G4Q)5-IL2) (other)
chain: EVQLLESGGGLVQPGGSLRLSCAASGRYIDETAVAWFRQAPGKEREFVAGIGGGVDITYYADSVKGRFTISRDNSKNTLYLQMNSLRPEDTAVYYCAARPGRPLITSKVADLYPYWGQGTLVTVSSGGGGQGGGGQGGGGQGGGGQGGGGQAPQSSSTQQTQLQLEHLLLDLQMILNGINNYKNPKLTRMLTFKFYMPKKATELKHLQCLEEELKPLEEVLNLAQSKNFHLRPRDLISRINVIVLELKGSETTFMCEYADETATIVEFLNRWITFAQSIISTLT
notes: also called Compound 7; VHH-IL-2 fusion
binding result [9]: no binding (tested: up to 1000 nM) | EC50 (nM), PathHunter IL-2 BioAssay [10]: 0.49 nM | Kd [11]: 0.23 nM | koff [11]: 0.00021 s⁻¹ | kon [11]: 910000 M⁻¹ s⁻¹ | Kd [12]: 0.39 nM | koff [12]: 0.00056 s⁻¹ | kon [12]: 1.4e+06 M⁻¹ s⁻¹ | Kd [13]: 3.9 nM | koff [13]: 0.0038 s⁻¹ | kon [13]: 970000 M⁻¹ s⁻¹ | Kd [14]: 3 nM | koff [14]: 0.0029 s⁻¹ | kon [14]: 970000 M⁻¹ s⁻¹ | Kd [15]: 13 nM | koff [15]: 0.0058 s⁻¹ | kon [15]: 450000 M⁻¹ s⁻¹ | Kd [16]: 1.8 nM | koff [16]: 0.0016 s⁻¹ | kon [16]: 920000 M⁻¹ s⁻¹ | Kd [17]: 78 nM | koff [17]: 0.052 s⁻¹ | kon [17]: 670000 M⁻¹ s⁻¹
